Article PMC3128695, “A Lower-Order Oligomer Form of Phage Shock Protein A (PspA) Stably Associates with the Hexameric AAA^+ Transcription Activator Protein PspF for Negative Regulation” (Journal of Molecular Biology, 2009)

B1: His-PspA(1–110) (HD1–HD2) (domain or fragment)
chain: not shown
B2: His-PspA(68–186) (HD2–HD3) (domain or fragment)
chain: not shown
B3: His-PspA(68–110) (HD2) (domain or fragment)
chain: not shown
notes: PspA, E. coli, residues 68-110 (HD2); Cloned NdeI-BamHI into pET28b+, which should give an N-terminal His tag as for the other fragments (surmised); a start codon was added by the forward primer; source: pET28b+-based plasmid pGJ52
B4: His-PspA(68–222) (HD2–HD3–HD4) (domain or fragment)
chain: not shown

Biological target: the molecule itself
Assay: SEC; single proteins alone: 50-μl samples of 30 μM PspAFL or PspA fragments (20 μM PspF1–275), Superose 6, 4 °C, 20 mM Tris–HCl pH 8.0, 50 mM NaCl, 15 mM MgCl2; apparent oligomeric forms from calibration with globular proteins
With B1 the “stoichiometry N” value was 2 subunits. With B2 the “stoichiometry N” value was 6 subunits. In the case of B3, the “stoichiometry N” value is reported as 2 subunits. In the case of B4, the “stoichiometry N” value is reported as 6 subunits.
